Test results: patent US20100184190A1, “Influencing viral lipid constituents” (priority 2006, published 2010)

Tested on: chicken embryo kidney (CEK) cells
Assay: FTIR microscopy of membrane phase transitions of treated CEK cell membranes
Assay type: cell-based
Settings: treated versus control
Description: The hydrophobic pocket of cyclodexrins has the ability to sequester cholesterol from membranes. When membrane cholesterol content was reduced by cyclodextrin treatment, as compared to the control of FIG. 1A, lipid mobility was reduced and the lipids found more ordered, as shown in FIG. 1B.

| Substance | change of membrane lipid order / melting groups (FTIR) |
| --- | --- |
| sphingomyelinase | significant reduction in the lower melting groups and a large increase in more ordered high melting membrane lipid groups |
| cyclodextrin | significant increase in about 45 °C melting lipid ordered groups |
